Reference: US20140248710, “THREE-COMPONENT BIOSENSORS FOR DETECTING MACROMOLECULES AND OTHER ANALYTES” (Mediomics LLC, published 2014)

Tests used:
[1] = target: T1, Thrombin (UniProt P00734;P00734 P00734:328-363,P00734:364-622); assay: fluorescence intensity titration; 50 mM Tris pH 7.5, 100 mM NaCl, 5 mM KCl, 1 mM MgCl2
[2] = target: T1, Thrombin; assay: competition; does not compete with THR2 (binds the other exosite); poor competitor of beacon complex compared with bivalent constructs
[3] = target: T1, Thrombin; assay: competition; affinity relative to THR2
[4] = target: Single-stranded DNA binding protein (SSB) (Escherichia coli, UniProt P0AGE0 P0AGE0:2-178); assay: FP; nanomolar concentrations, similar range as thrombin; conditions: tags: Sigma; chain copies: 4; label: 5' fluorescein
Single-stranded DNA binding protein (SSB), sequence (P0AGE0 2-178, one chain of several): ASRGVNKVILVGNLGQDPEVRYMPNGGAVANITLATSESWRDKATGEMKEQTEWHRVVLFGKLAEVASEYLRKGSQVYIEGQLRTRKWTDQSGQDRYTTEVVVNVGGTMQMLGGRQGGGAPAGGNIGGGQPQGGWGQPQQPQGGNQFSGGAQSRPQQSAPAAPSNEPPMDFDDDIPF

[5] = target: T1, Thrombin; assay: FP; nanomolar range only
[6] = target: T1, Thrombin; assay: EMSA; high affinity; among most efficient competitors (FIG. 16)

B1: THR2 (G15D) (ssDNA)
DNA: GGTTGGTGTGGTTGG
Kd [1]: 6.3 nM

B2: THR3 (60-18 [29]) (ssDNA)
DNA: AGTCCGTGGTAGGGCAGGTTGGGGTGACT
binding result [2]: binds

B3: THR4 (G15D) (ssDNA)
DNA: GGTTGGTGTGGTTGG
binding signal [3]: 1.7 fold

B4: THR1 (60-18 [29]) (ssDNA)
DNA: AGTCCGTGGTAGGGCAGGTTGGGGTGACT
binding result [4]: binds | binding result [5]: binds

B5: THR18/THR19 bivalent (structured_DNA)
DNA 1: GGTTGGTGTGGTTGGTTTTTTTTTTTTTTTTTTTTTTTTTTTCTGTCGTTAGTGAAGGTT
DNA 2: AACCTTCACTAACGACAGTTTTTTTTTTTTTTTTTTTTTTTTTTTAGTCCGTGGTAGGGCAGGTTGGGGTGACT
binding result [6]: binds

B6: THR16/THR17 bivalent (structured_DNA)
DNA 1: GGTTGGTGTGGTTGGTTTTTTTTTTTTTTTTTCTGTCGTTAGTGAAGGTT
DNA 2: AACCTTCACTAACGACAGTTTTTTTTTTTTTTTTTAGTCCGTGGTAGGGCAGGTTGGGGTGACT
binding result [6]: binds
